Data set [1] concerns the target T1, H-TKQTARK(Me3)STGGKAPR-OH (TR-15, H3 3-17 K9me3 peptide).
T1 chain: TKQTARKSTGGKAPR

Data set [2] concerns the target H3 31-41 K36me3 peptide, P68431.

B1: Human KDM4B 1-348 (His6-tagged, expressed in E. coli from pET28a) (protein)
chain: MGSEDHGAQNPSCKIMTFRPTMEEFKDFNKYVAYIESQGAHRAGLAKIIPPKEWKPRQTYDDIDDVVIPAPIQQVVTGQSGLFTQYNIQKKAMTVGEYRRLANSEKYCTPRHQDFDDLERKYWKNLTFVSPIYGADISGSLYDDDVAQWNIGSLRTILDMVERECGTIIEGVNTPYLYFGMWKTTFAWHTEDMDLYSINYLHFGEPKSWYAIPPEHGKRLERLAIGFFPGSSQGCDAFLRHKMTLISPIILKKYGIPFSRITQEAGEFMITFPYGYHAGFNHGFNCAESTNFATLRWIDYGKVATQCTCRKDMVKISMDVFVRILQPERYELWKQGKDLTVLDHTRPT
Consider B1, for which the Km (µM), FDH-coupled demethylase assay in data set [1] is 88.3 µM; in data set [2] it was 138 µM.

B2: Human KDM4A 1-347 (His6-tagged, expressed in E. coli from pET28a) (protein)
chain: MASESETLNPSARIMTFYPTMEEFRNFSRYIAYIESQGAHRAGLAKVVPPKEWKPRASYDDIDDLVIPAPIQQLVTGQSGLFTQYNIQKKAMTVREFRKIANSDKYCTPRYSEFEELERKYWKNLTFNPPIYGADVNGTLYEKHVDEWNIGRLRTILDLVEKESGITIEGVNTPYLYFGMWKTSFAWHTEDMDLYSINYLHFGEPKSWYSVPPEHGKRLERLAKGFFPGSAQSCEAFLRHKMTLISPLMLKKYGIPFDKVTQEAGEFMITFPYGYHAGFNHGFNCAESTNFATRRWIEYGKQAVLCSCRKDMVKISMDVFVRKFQPERYKLWKAGKDNTVIDHTLPT
As for B2, the values for the Km (µM), FDH-coupled demethylase assay in data set [1] and in data set [2] were 92.5 µM and 170 µM, respectively.

Source of the values: patent publication US20180087118.
